Key:
Conditions in all cases: reference: wild type; sites Y554
Hic-5 (Myc-tagged) = Hic-5 (Myc-tagged) (UniProt Q62219); experiment: anti-FLAG co-IP, anti-Myc blot
[1] = target: paxillin (Myc-tagged; endogenous in mouse brain) (UniProt Q8VI36); experiment: anti-FLAG co-IP, anti-Myc blot
[2] = target: Hic-5 (endogenous, HEK293T) (UniProt O43294); experiment: anti-FLAG IP, FLAG-peptide elution, Western blot
[3] = target: paxillin (endogenous, HEK293T) (UniProt P49023); experiment: anti-FLAG IP, FLAG-peptide elution, Western blot

- binding against the reference (Hic-5 (Myc-tagged)): stronger
- binding against the reference [1]: stronger
- binding against the reference [2]: stronger
- binding against the reference [3]: stronger
Substance: Git1 (FLAG-, YFP-tagged, transfected) (from UniProt Q9Z272) Y554F

Source: article PMC4351203
